Data: PMC3200332

Molecular target: pyruvate ferredoxin oxidoreductase (POR) from P. furiosus (Pyrococcus furiosus)

Work on “OE-SHI Dimer, heterodimeric form of P. furiosus soluble hydrogenase I (His9-PF0893 + PF0894) (from UniProt Q8U2E5 1-367) (complex)” yielded a POR-linked H2 evolution activity (electrons from pyruvate via POR; ferredoxin had no significant effect) of 0.2 U mg^−1.
“native Pyrococcus furiosus soluble hydrogenase I (SHI), heterotetramer PF0891-PF0894 (from UniProt Q8U2E5 1-367; Q8U2E5 1-367) (complex)” was tested, and the POR-linked H2 evolution activity (electrons from pyruvate via POR) was -0 U mg^−1.
